What is called Kd is a measure of binding affinity in units of concentration.

The series has as its target Pdx1 homeodomain (Pdx1-HD) (Homo sapiens, UniProt P52945 146-206). As to the kind of experiment: ITC.

Pdx1 homeodomain (Pdx1-HD), sequence (P52945 146-206): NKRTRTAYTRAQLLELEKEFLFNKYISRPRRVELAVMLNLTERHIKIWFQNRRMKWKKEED

B1: Insulin A3 (dsDNA)
DNA 1: AGACTCTAATGACCCG
DNA 2: CGGGTCATTAGAGTCT
Molecule B1 came in with a Kd of 4 ± 1 nM.

B2: IAPP A2 (dsDNA)
DNA 1: ATGAGTTAATGTAATA
DNA 2: TATTACATTAACTCAT
B2 displayed a dissociation constant (Kd) of 27 ± 7 nM.

B3: Insulin E1 (dsDNA)
DNA 1: AGCCATCTGCCGACCC
DNA 2: GGGTCGGCAGATGGCT
The molecule B3 gave an equilibrium dissociation constant (Kd) of 1300 ± 300 nM.

B4: IAPP A1 (dsDNA)
DNA 1: GGAAATTAATGACAGA
DNA 2: TCTGTCATTAATTTCC
Turning to B4, the Kd is 22 ± 5 nM.

B5: Insulin A1 (dsDNA)
DNA 1: AGGCCCTAATGGGCCA
DNA 2: TGGCCCATTAGGGCCT
B5 came in with a Kd of 7 ± 2 nM.

For the origin of these results see publication PMC3800017.
